Here are results for 2 molecules from patent US11672767.

Data set [1] concerns the target T1, BMP2-P5SPCP NPs (UniProt P12643).
T1 sequence 1: CGGKGGKFKTGG
T1 sequence 2: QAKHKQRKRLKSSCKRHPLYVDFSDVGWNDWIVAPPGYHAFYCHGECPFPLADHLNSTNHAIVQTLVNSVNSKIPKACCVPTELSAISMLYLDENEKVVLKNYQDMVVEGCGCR

For data set [2], the target named is T2, BMP2-PxSPCP NPs (UniProt P12643).
T2 sequence 1: CGGKGGKFKTGG
T2 sequence 2: T1 sequence 2

Data set [3] has as its target T3, BMP2-PxSPCP NPs, P12643.
T3 chain 1: CGGKGGKFKTGG
T3 chain 2: T1 sequence 2

Turning to plasmin, the “cumulative release of BMP2 from NPs co-encapsulated with plasmin in LPELA hydrogel, measured by BMP2 ELISA” value in data set [1] is “the cumulative release of BMP2 from the encapsulated BMP2-P5SPCP NPs was 60% after 21 days”. The “release of BMP2 from NPs co-encapsulated with plasmin in LPELA hydrogel, measured by BMP2 ELISA” value in data set [2] is “gradually released to the medium with incubation time at a rate faster than BMP2-PxSP NPs but slower than the free BMP2”.

B1: plasmin secreted by the encapsulated cells (hMSCs) (protein)
chain: KVYLSECKTGNGKNYRGTMSKTKNGITCQKWSSTSPHRPRFSPATHPSEGLEENYCRNPDNDPQGPWCYTTDPEKRYDYCDILECEEECMHCSGENYDGKISKTMSGLECQAWDSQSPHAHGYIPSKFPNKNLKKNYCRNPDRELRPWCFTTDPNKRWELCDIPRCTTPPPSSGPTYQCLKGTGENYRGNVAVTVSGHTCQHWSAQTPHTHNRTPENFPCKNLDENYCRNPDGKRAPWCHTTNSQVRWEYCKIPSCDSSPVSTEQLAPTAPPELTPVVQDCYHGDGQSYRGTSSTTTTGKKCQSWSSMTPHRHQKTPENYPNAGLTMNYCRNPDADKGPWCFTTDPSVRWEYCNLKKCSGTEASVVAPPPVVLLPDVETPSEEDCMFGNGKGYRGKRATTVTGTPCQDWAAQEPHRHSIFTPETNPRAGLEKNYCRNPDGDVGGPWCYTTNPRKLYDYCDVPQCAAPSFDCGKPQVEPKKCPGRVVGGCVAHPHSWPWQVSLRTRFGMHFCGGTLISPEWVLTAAHCLEKSPRPSSYKVILGAHQEVNLEPHVQEIEVSRLFLEPTRKDIALLKLSSPAVITDKVIPACLPSPNYVVADRTECFITGWGETQGTFGAGLLKEAQLPVIENKVCNRYEFLNGRVQSTELCAGHLAGGTDSCQGDSGGPLVCFEKDKYILQGVTSWGLGCARPNKPGVYVRVSRFVTWIEGVMRNN
Turning to B1, the “osteogenic activity (peak RUNX2 expression) of hMSCs co-encapsulated with the NPs” value in data set [3] is “The BMP2-PxSPCP NP groups showed significantly higher osteogenic activity compared to non-cleavable BMP2-PxSP NPs”.
